Laboratory results: publication PMC9917220

What was measured:
human thrombin [1] = biological target: T1, human thrombin (Homo sapiens, UniProt P00734;P00734 328-363;364-622); assay: ITC; 25 C, binding buffer, 1 mM Mg2+; Binding Buffer: 50 mM Tris-HCl, 100 mM NaCl, 1 mM MgCl2, 1 M DTT (so in the source), pH not stated; ITC and CD at 25 C
human thrombin [2] = biological target: T1, human thrombin; assay: CD; 0.5 uM thrombin, 5 uM DNA; no significant spectral change; Binding Buffer: 50 mM Tris-HCl, 100 mM NaCl, 1 mM MgCl2, 1 M DTT (so in the source), pH not stated; ITC and CD at 25 C

B1: AS2-3 (61mer; identical to AS7-36 and AS7-83) (structured_DNA)
DNA: TACAGGCAGTAAGGCCGTGTCATCAGGATGGGCACTTTCCTAGGGCAGGTTAGCAACAGGA
- Kd (human thrombin [1]): 3.36 µM

Binder: TACAGGCAGTAAGGCCGTGTCATCAGGATGGGCACTTTCC (structured_DNA) [40mer AS2-3]
- binding result (human thrombin [2]): no binding
